Data taken from patent publication US20090291088A1 (Biogen, published 2009).

Tests used:
[1] = target: T1, human IGF-1R(1-902)-His10 (human, UniProt P08069 31-932); assay: protein ELISA
T1 construct: Cy5-labelled in tr-FRET; also called hIGF-1R-His10; IGF-1R-His

[2] = target: T2, human IGF-1R expressed on cells (human, UniProt P08069 31-1367); assay: binding to MCF-7 tumor cells
T2 construct: On MCF-7 tumor cells or on 3T3/CHO transfectants; precursor is processed into alpha and beta subunits; Signal peptide 1-30 left out as stated; also called wild type IGF-1R; IGF-1R 3T3

[3] = target: T3, murine IGF-1R expressed on cells (mouse, UniProt Q60751 31-1373); assay: binding to CHO transfectants
T3 construct: whole, on cells; also called mouse IGF-1R
T3 sequence (Q60751 31-1373): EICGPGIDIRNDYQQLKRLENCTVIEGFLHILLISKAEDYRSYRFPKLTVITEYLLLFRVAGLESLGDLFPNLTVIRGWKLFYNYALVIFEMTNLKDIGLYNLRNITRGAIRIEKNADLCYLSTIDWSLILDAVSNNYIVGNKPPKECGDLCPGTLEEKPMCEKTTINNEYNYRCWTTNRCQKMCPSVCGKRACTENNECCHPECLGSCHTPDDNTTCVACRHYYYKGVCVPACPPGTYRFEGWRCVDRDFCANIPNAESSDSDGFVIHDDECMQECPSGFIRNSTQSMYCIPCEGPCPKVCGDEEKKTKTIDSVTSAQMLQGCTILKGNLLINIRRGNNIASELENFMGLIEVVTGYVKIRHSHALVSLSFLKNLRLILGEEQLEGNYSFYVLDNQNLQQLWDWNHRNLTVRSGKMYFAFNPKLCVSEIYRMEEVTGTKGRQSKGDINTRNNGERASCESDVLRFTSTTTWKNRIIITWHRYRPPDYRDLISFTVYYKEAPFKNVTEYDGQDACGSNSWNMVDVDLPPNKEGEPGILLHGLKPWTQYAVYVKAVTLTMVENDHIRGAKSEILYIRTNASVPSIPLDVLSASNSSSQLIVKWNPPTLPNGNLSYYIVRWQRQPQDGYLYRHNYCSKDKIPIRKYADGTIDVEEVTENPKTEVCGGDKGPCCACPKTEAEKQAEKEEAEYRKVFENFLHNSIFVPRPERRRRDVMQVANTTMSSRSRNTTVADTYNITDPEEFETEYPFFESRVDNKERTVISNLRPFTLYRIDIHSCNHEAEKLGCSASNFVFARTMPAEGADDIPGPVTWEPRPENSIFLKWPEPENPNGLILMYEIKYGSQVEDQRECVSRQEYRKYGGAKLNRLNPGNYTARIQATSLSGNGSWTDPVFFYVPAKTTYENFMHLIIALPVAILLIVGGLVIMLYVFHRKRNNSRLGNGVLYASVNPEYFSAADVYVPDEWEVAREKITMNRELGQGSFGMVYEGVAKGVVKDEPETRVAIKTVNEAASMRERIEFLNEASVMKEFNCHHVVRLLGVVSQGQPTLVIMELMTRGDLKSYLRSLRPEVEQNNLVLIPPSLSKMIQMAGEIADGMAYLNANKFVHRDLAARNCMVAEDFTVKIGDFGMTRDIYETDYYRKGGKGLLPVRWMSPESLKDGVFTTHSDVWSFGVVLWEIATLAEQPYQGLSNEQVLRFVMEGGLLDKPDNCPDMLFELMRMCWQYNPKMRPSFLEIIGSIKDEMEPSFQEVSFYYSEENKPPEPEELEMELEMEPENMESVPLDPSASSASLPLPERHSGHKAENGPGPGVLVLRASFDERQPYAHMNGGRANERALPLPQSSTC

human IGF-1R(1-903)-Fc [4] = target: T4, human IGF-1R(1-903)-Fc (human, UniProt P08069 31-933); assay: ELISA, plate coated with soluble IGF-1 receptor Fc fusion protein, detection with anti-human kappa-HRP
T4 construct: Made by Biogen Idec; Multimerises through IGF-1R and Fc; also called hIGF-1R-Fc; IGF-1R-Fc; not shown: C-terminal human IgG1-Fc tag
Protocol: The plate was washed with phosphate-buffered saline (PBS, Irvine Scientific, Cat#9240), pH 7.4 plus 0.025% Tween 20 in the Skan Washer 300 (Skatron Instruments), blocked with buffer containing 1% nonfat milk, 0.05% Tween 20 in PBS, pH 7.4, and then incubated at room temperature for 1 hour. After incubation plate was washed with PBS plus 0.025% Tween 20 in the Skan Washer 300. […] Following a one hour incubation at room temperature, plate was washed with PBS plus 0.025% Tween 20 in the Skan Washer 300. […] Plate incubated for 1 hour at room temperature was washed with PBS plus 0.025% Tween 20 in the Skan Washer 300. […] The absorbance was measured at 450 nm, background 540 nm for TMB using the Molecular Devices plate reader. Data was analyzed using the SOFTMAX PRO software package version 4.3 LS (Molecular Devices Corp.).

[5] = target: T2, human IGF-1R expressed on cells; assay: cell-based or functional assay
[6] = target: T5, Rhesus IGF-1R expressed on CHO cells (rhesus monkey, UniProt I2CWY3 31-1367); assay: flow cytometry and confocal microscopy, CHO transfectants
T5 construct: whole, on cells; also called Rhesus IGF-1R/CHO
T5 sequence (I2CWY3 entry or part of it): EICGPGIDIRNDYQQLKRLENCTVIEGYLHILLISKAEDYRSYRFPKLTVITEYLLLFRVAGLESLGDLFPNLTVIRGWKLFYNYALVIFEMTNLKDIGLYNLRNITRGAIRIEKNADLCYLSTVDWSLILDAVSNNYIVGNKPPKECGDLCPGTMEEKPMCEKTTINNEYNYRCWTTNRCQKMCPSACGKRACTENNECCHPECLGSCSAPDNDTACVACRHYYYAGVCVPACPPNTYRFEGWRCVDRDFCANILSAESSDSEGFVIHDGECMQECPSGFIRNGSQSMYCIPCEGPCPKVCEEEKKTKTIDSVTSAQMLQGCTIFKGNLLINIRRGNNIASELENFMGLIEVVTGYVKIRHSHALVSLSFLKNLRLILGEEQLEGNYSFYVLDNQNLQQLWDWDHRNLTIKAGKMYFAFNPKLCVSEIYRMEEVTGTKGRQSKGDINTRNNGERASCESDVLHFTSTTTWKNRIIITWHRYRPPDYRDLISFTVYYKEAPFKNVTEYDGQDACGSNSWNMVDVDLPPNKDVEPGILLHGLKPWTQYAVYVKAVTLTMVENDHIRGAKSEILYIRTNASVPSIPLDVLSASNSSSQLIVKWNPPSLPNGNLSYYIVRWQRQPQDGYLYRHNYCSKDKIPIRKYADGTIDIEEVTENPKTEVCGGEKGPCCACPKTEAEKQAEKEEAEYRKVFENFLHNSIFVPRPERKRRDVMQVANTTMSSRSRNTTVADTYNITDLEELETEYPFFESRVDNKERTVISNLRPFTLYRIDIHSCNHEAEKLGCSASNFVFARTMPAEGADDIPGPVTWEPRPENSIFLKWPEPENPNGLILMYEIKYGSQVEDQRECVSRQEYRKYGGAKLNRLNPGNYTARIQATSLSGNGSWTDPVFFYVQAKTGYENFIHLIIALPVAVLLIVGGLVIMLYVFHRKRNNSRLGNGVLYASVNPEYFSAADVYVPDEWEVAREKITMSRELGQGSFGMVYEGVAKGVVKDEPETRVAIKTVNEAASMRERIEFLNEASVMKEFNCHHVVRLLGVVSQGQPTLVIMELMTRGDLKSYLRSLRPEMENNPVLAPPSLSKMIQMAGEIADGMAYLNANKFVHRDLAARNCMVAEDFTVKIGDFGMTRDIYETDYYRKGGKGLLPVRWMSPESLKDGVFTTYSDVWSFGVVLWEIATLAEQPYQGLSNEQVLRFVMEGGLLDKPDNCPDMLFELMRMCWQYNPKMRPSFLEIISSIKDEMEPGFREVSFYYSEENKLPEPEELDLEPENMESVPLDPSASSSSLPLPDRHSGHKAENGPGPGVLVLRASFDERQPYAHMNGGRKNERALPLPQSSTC

[7] = target: T1, human IGF-1R(1-902)-His10; assay: SPR, antibody over captured IGF-1R-10His
Protocol: All surface plasmon resonance (SPR) experiments were performed on a Biacore 3000 set to 25° C. using HBS-EP (Biacore, Cat. No. BR-1001-88) as the running buffer. A biotin-labeled anti-HisTag antibody (biotin-PENTA-His, Qiagen Cat. No. 34440) was immobilized to saturation on a Biacore SA chip (Cat. No. BR-1000-32) surface by injection at 500 nM in HBS-EP buffer. […] Subsequent to IGF-1R injections, flow rates were increased to 20 μL/min. A second, 130 μL injection of anti-IGF-1R antibody or Fab was performed to investigate interactions with the receptor. Each antibody and Fab was serially diluted from 64 nM to 0.5 nM to obtain concentration dependent kinetic binding curves. Each injection series was regenerated using 3×10 μL injections of 10 mM Acetate, pH 4.0, at 20 μL/min. Each curve was double referenced using (1) data obtained from a streptavidin surface devoid of IGF-1R and (2) data from a primary injection of IGF-1R followed by a secondary injection of HBS-EP buffer. The concentration series for each antibody and Fab was fit to the 1:1 binding model provided within the BiaEvaluation software of the manufacturer.
The rates at which the antibodies accumulate on the IGF-1R coated surface when applied at various concentrations as well as the rates at which they dissociated during applications of pure buffer were investigated by fitting the data to a 1:1 binding model. Approximate kinetic rate constants and equilibrium dissociation constant were calculated (Table 14).

[8] = target: T6, human insulin receptor expressed in mammalian cells (UniProt P06213 28-1382, limits assumed); assay: immunoprecipitation from IR CHO lysate, western blot with mouse anti-human IR
T6 construct: whole, on cells; Cells were solubilised with Triton X-100 before immunoprecipitation; also called INSR; IR
Protocol: Recombinant IGF-1R and insulin receptor (IR) were independently expressed in mammalian cells (3T3 or CHO). […] Antibody/antigen complexes were released from the beads by acid treatment, applied to Tris-Glycine SDS-PAGE gels and blotted to nitrocellulose membranes. Detection was performed using mouse anti-human IR (FIG. 24A) or mouse anti-human IGF-1R (FIG. 24B) and goat α-mouse IgG.

human IGF-1R(1-903)-Fc [9] = target: T4, human IGF-1R(1-903)-Fc; assay: ELISA on hIGF-1R-Fc, competitor biotinylated M14-G11
human IGF-1R(1-903)-Fc [10] = target: T4, human IGF-1R(1-903)-Fc; assay: ELISA on hIGF-1R-Fc, competitor Zenon-labelled αIR3
human INSR(28-956)-His10 = target: T7, human INSR(28-956)-His10 (human, UniProt P06213 28-956); assay: ELISA, plate coated with rh-INSR
T7 construct: range 28-956; Bought (R&D Systems 1544-IR); also called rh-INSR; soluble insulin receptor
Protocol: ELISA assays were performed to determine specific binding of the Fab fragment antibodies to soluble IGF-1R over the insulin receptor. […] Color development was stopped by addition of 4NH₂SO₄ and optical density is measured at 450 nm using a Molecular Devices plate reader and binding curves are generated.

[11] = target: T2, human IGF-1R expressed on cells; assay: flow cytometry, MCF-7 cells
Protocol: The ability of Fabs to bind to the wild type IGF-1R was determined by flowcytometry using MCF-7 tumor cell line.
MCF-7 cells (Human Breast Adenocarcinoma from NCI) were split 24 hours prior to the setup of the assay to obtain 70% confluent monolayer. Routinely, MCF-7 cell line was maintained within 20 passages. Cells were lifted with cell dissociation buffer (Gibco catalog #13151-014), counted, washed and adjusted to 1×10⁶ cells/ml and one ml of cells were then added to each tube (12×75 mm tube Falcon catalog# 352054). Cells were pelleted and supernatant removed by centrifugation at 1200 rpm for 5 min and 100 μl of diluted antibodies were then added to the cell pellet. Purified Fabs were tested at a starting concentration of either 210 or 60 μg/ml with 1:3 dilutions in FACS buffer, down to 0.001 μg/ml. FACS buffer used throughout the assay was PBS (without Ca++/Mg++) containing 1% BSA (Sigma catalog# A-7906; Sigma-Aldrich Corp. (St. Louis, Mo., USA)) and 0.1% Sodium Azide (Sigma catalog #S2002). […] Samples were allowed to incubate on ice for 1 hour and 15 minutes then were washed with 2 ml FACS buffer and centrifuged at 1200 rpm for 5 minutes at 4° C. The supernatant was aspirated and 100 μl of the secondary detection antibody was added to each corresponding tube in FACS buffer. Samples were then incubated for 30 minutes on ice, in the dark. Cells were washed as described above, then, re-suspended in […] FACS buffer per tube/sample.
Cells were stained for live cell determination with Propidium Iodide staining solution (PI for dead cell exclusion; BD Pharmingen catalog# 51-66211E or 556463; use at 1:500 final in FACS buffer). Samples were run on the FACSCalibur instrument (Becton Dickinson) with 10,000 live events collected per sample.

B1: P1E2.3B12 (antibody, IgG2b, V domains shown)
VH: QVQLQQPGAELVKPGASVKLSCKASGYTFTSYWMHWVKQRPGQGLEWIGEINPTYGRSNYNEKFKSKATLTVDKSSSTAYMQLSSLTSEDSAVYYCARLVRLRYFDVWGAGTTVTVSS
VL: DIVMTQAAFSNPVTLGTSASISCRSSKSLLHSNGITYLYWYLQKPGQSPQLLIYQMSNLASGVPDRFSSSGSGTDFTLRISRVEAEDVGVYYCAQNLELPYTFGGGTKLEIK
notes: Murine hybridoma antibody, IgG2b/k; also called P1E2 (hybridoma)
EC50 [1]: 0.016 nM
EC50 [2]: 0.391 nM

B2: M14-G11.G4.P (antibody, human IgG4, V domains shown)
VH: EVQLLESGGGLVQPGGSLRLSCAASGFTFSNYPMYWVRQAPGKGLEWVSRISSSGGRTVYADSVKGRFTISRDNSKNTLYLQMNSLRAEDTAVYYCARDRWSRSAAEYGLGGYWGQGTLVTVSS
VL: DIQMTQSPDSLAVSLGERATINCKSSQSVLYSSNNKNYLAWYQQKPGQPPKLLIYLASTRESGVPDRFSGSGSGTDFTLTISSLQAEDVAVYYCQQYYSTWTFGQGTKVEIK
notes: Full-length human IgG4.P, kappa; also called M14.G11.P; G4 version of M14-G11
binding result [3]: binds
EC50 (read off the curve) (human IGF-1R(1-903)-Fc [4]): ~0.06 nM
inhibition of IGF-1 and IGF-2 mediated IGF-1R receptor phosphorylation (EC50) [5]: < 1 nM
binding result [6]: binds

B3: M14-G11.G4.P.agly (antibody, human IgG4 S228P, kappa, V domains shown)
VH: EVQLLESGGGLVQPGGSLRLSCAASGFTFSNYPMYWVRQAPGKGLEWVSRISSSGGRTVYADSVKGRFTISRDNSKNTLYLQMNSLRAEDTAVYYCARDRWSRSAAEYGLGGYWGQGTLVTVSS
VL: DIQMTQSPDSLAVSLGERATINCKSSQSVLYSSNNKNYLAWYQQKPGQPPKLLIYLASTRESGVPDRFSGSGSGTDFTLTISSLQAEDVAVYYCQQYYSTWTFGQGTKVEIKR
notes: Full-length human aglycosylated IgG4.P, kappa; Places that say only 'M14-G11 antibody' were assigned to this version; also called M14-G11_Ab; Biotin-G11
Kd [7]: 0.11 nM
koff [7]: 0.00011 s⁻¹
kon [7]: 1e+06 M⁻¹ s⁻¹
binding result [8]: no binding
percent competition (relative to self-competition) (human IGF-1R(1-903)-Fc [9]): 90 to 100%
percent competition (relative to self-competition) (human IGF-1R(1-903)-Fc [10]): 50 to 70%
EC50 (read off the curve) (human IGF-1R(1-903)-Fc [4]): ~0.06 nM

B4: M12-G04.G4.P (antibody, human IgG4, V domains shown)
VH: EVQLLESGGGLVQPGGSLRLSCAASGFTFSKYTMHWVRQAPGKGLEWVSSIVSSGGWTDYADSVKGRFTISRDNSKNTLYLQMNSLRAEDTAVYYCARDRSIAAAGTGWSVSFVDWFDPWGQGTLVTVSS
VL: DIQMTQSPLSLSASVGDRVTITCRASQSINGYLNWYQQKPGKAPNLLIYATSSLQSGVPSRFSGSGSGTDFTLTISSLQPEDFATYYCQQSYSTPPYTFGQGTKLEIK
notes: Full-length human IgG4.P, kappa; also called G4 version of M12-G04
EC50 (read off the curve) (human IGF-1R(1-903)-Fc [4]): ~0.2 nM

B5: M12-G04 Fab (Fab, V domains shown)
VH: EVQLLESGGGLVQPGGSLRLSCAASGFTFSKYTMHWVRQAPGKGLEWVSSIVSSGGWTDYADSVKGRFTISRDNSKNTLYLQMNSLRAEDTAVYYCARDRSIAAAGTGWSVSFVDWFDPWGQGTLVTVSS
VL: DIQMTQSPLSLSASVGDRVTITCRASQSINGYLNWYQQKPGKAPNLLIYATSSLQSGVPSRFSGSGSGTDFTLTISSLQPEDFATYYCQQSYSTPPYTFGQGTKLEIK
notes: Human phage Fab, kappa
binding result (human INSR(28-956)-His10): no binding (tested: about 5000 nM)
EC50 [11]: 25 nM

B6: P1A2.2B11 (antibody, IgG2b, V domains shown)
VH: QIQLVQSGPELKKPGETVKISCKASGYTFTNHGMNWVKQAPGKGLKWMGWNTSTGEPTYADDFKGRFAFSLETSASTAFLQINNLKNEDTASYFCASPLYYMYGRYIDVWGAGTAVTVSS
VL: DIQMTQTTSSLSASLGDRVTISCRASQDISNYLNWYQQKPDGTIKLLIYYTSRLHSGVPSRFSGSGSGTDYSLTISNLEQEDFATYFCQQGKTLPWTFGGGTKLEIK
notes: Murine hybridoma antibody, IgG2b/k
EC50 [1]: 0.023 nM
EC50 [2]: 1.1 nM

B7: P1G10.2B8 (antibody, IgG1, V domains shown)
VH: QIQLVQSGPDLKKPGETVKISCKASGYTFTNHGMNWVKQAPGKDLKWMGWINTNTGEPTYADDFKGRFAFSLETSASTAYLQINNLKNEDTATYFCASPLYYRNGRYFDVWGAGTTVTVSS
VL: DIQMTQTTSSLSASLGDRVTISCRASQDISNYLNWYQQKPDGSVKLLIYYTSRLHSGVPSRFSGSGSGTDYSLTISNLEQEDIATYFCQQGKTLPWTFGGGTKLEIK
notes: Murine hybridoma antibody, IgG1/k
EC50 [1]: 0.075 nM
EC50 [2]: 2.06 nM

B8: P2A7.3E11 (antibody, IgG2a, V domains shown)
VH: QVQLQQSGPELVKPGASVKMSCKASGNTFTDYVINWVKQRTGQGLEWIGEIYPGNENTYYNEKFKGKATLTADKSSNTAYMQLSSLTSEDSAVYFCARGIYYYGSRTRTMDYWGQGTSVTVSS
VL: EVVLTQSPTAMAASPGEKITITCSASSTLSSNYLHWYQQKPGFSPKLLIYRTSNLASGVPGRFSGSGSGTSYSLTIGTMEAEDVATYYCQQGSSIPLTFGAGTKLELK
notes: Murine hybridoma antibody, IgG2a/k; also called muP2A7
EC50 [1]: 0.011 nM
EC50 [2]: 0.447 nM
